Experimental data from patent US20130295121A1 (published 2013).

Key:
[1] = target: T1, soluble CD16A (sCD16A) (human, UniProt P08637 17-208, biotin- or HRP-conjugated where used as the ELISA probe); experiment: SPR (BIAcore), receptor immobilized
T1 construct: extracellular domain; Printed only as soluble CD16A; Also used here where an ELISA names only CD16 or CD16A; also called hCD16A; FcγRIIIA

[2] = target: T2, soluble CD32A (sCD32A) (UniProt P12318 34-217, limits assumed); experiment: SPR (BIAcore), receptor immobilized
T2 construct: extracellular domain; Negative control receptor in SPR; also called control receptor
T2 sequence (looked up): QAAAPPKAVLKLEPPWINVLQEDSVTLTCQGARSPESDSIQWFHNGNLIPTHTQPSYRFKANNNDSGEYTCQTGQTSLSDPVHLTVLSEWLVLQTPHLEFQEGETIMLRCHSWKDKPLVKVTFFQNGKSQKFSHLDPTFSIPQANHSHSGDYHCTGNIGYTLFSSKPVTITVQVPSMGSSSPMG

[3] = target: T3, soluble CD32B (sCD32B) (human, UniProt P31994 43-217, biotinylated where used as the ELISA probe); experiment: SPR (BIAcore), sCD32B immobilized, diabody 6.25-200 nM as analyte, bivalent analyte fit
T3 construct: extracellular domain; also called huCD32B; FcγRIIB
T3 sequence (looked up): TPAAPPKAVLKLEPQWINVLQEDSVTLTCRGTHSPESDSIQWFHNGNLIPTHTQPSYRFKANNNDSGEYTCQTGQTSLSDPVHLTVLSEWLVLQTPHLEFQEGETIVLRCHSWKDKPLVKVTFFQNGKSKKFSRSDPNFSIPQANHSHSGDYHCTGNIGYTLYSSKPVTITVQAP

T1 sequence (P08637 17-208): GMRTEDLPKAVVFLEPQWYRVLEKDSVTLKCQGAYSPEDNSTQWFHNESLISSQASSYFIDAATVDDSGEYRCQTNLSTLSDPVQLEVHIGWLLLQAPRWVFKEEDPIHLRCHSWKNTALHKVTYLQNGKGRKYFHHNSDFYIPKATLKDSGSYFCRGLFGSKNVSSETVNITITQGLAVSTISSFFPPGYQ

B1: h2B6 covalent monospecific diabody (CMD) (other)
chain: EIVLTQSPDFQSVTPKEKVTFTCRTSQSIGTNIHWYQQKPDQSPKLLIKEVSESISGVPSRFSGSGSGTDFTLTINSLEAEDAATYYCQQSNTWPFTFGGGTKVEIKGGGSGGGGQVQLVQSGAEVKKPGASVKVSCKASGYTFTNYWIHWVRQAPGQGLEWIGVIDPSDTYPNYNKKFKGRVTMTVVVSTSTAYMELRSLRSDDTAVYYCARNGDSDYYSGMDYWGQGTTVTVSSLGGC
notes: Homodimer of construct 4 (hu2B6VL-hu2B6VH-LGGC); also called h2B6 CMD; h2B6 diabody
For B1, the binding result [1] was “no binding (tested: 100 nM)”, the binding result [2] was “no binding (tested: 100 nM)” and the Kd [3] was 21 nM.
